According to the DeepSol protein solubility set:

Experiment: soluble on expression in E. coli; label from the status in PepcDB or PDB records

Soluble on expression in E. coli, not soluble:
MGSDKIHHHHHHMNIRLYSDLHIEFEDFHAPADGADVVVLAGDVDVGVRGIDWIVRQEFSCPVIYVMGNHEYYNHRYPSLLGKVKQHAAGKNIHILENESVEIDGVRFHGATLWADFKLFGDPRVAGYECQQVMRDYKKIRKEPSYSKLRSIDVASIHNQSLSWLAESLASSKSSVNVVVTHHAPSMLSVPAYYQDNLVTAAYASDLSAFIDEHKPDYWLHGHLHTSSNYYLGACQVLANPKGYKGEVNESFDPSFSLTLAKRGV
MGSDKIHHHHHHMNKDFTFTIKSIRLDEDYHPSDSTRITTNFANLARGSYRQANLRNALKMIDNSFNALANWDNPKGDRYSVELEIISVDMDIEGSGKTFPSIEILKTNIVDHQTNQRIEGIVGNNFSSYVRDYDFSVLLQAHNKDQPNFSIPDNFGELHGKLFQYFVNSNAYKQNFKKTPVICLSVSDNKTYHRTENQHPVLGVEYQPNESSLTEQYFKKMGLQVRYFMPPNSVAPLAFHFFGDLLNDYTNLELISTISTMGTFQKIYRPEIYNANAAAGKSYQPNLKNLDHSLTQIVYDREERSKLANEQGKFAEKHFIKPYQTVLEQWSANYV
MGSDKIHHHHHHMNKEAIESLLIHVIGTDVIVNEVRPIGGGNTSRAFAVKSSQGNFFIKTNRAGLVDMFEKEVKNLELLRKVLPSNTPEVVGYGTIDHVSYFILKLIEPGRRVADFWSDFGRTLSELHRVTGNTFGLEYDNYIGSLPQSNKQNSNWVDFFVNERIWPQAKKAEKVLGTEIVGMISKLSDRLPDLLTQSRPTLLHGDLWSGNFTLNQAGTVCLVDPATYYGNREIEIAFTKLFGGFEDEFYAAYSEVLPLDKGFFDTRADIYNLYPLLVHVNLFGGWYVASVRETLKRFV
MGSDKIHHHHHHMNKKSSLNNLLYIQEHRSCRNYLEKVENGFKYIEFSHEEVILEKEISWNYLLFVLEGECIINCNQFRERLFQANCMVLLPKTAMVEIKVIAGTRLLSLSFDVPLNVCDKFILQSLTGLCRKLDYNFQSLAIRYPLPPYLEIVTYCLTNKMDCGHFHTLLQQELFFLLRGFYLKEELALLFHPIISAELTFKDFVIGNYFKVSNVNDLISLSNMCKSSFYCKFKEVFGMTAKQWLLKQRNTHILNKVMTSETTVGELMEEFRFESQAHFTHYCKQHFNCTPRELIMKYQVVNQ
MGSDKIHHHHHHMNKLEERSQHRKSRFRFLVISTFWRVLLLLKNDAEPLFHLGNIHYAYGHKASAMNYWKEAVSKNREHEKAWHNLVQCAVIQEEWEQAAEGLTILCRNHPTRFEYMSLYTHALKKLGKKEELEEWYLSHINGPHHEWAIEGLGMLYIRTRREIDAFKLLSPFVRKFPNRPVGLKILGISSIRTNQYEAGLTFLEKSLELKEDKEVKSLVDRVKRLKKVRGGNR
MGSDKIHHHHHHMNKLRILHLNDLHSHLERFPVIERFFAEKSHEEVESLSFDLGDNVDRVHPLTEATEGQFNVELMNRLDLTAATIGNNEGLGLTHEMLSHLYDEANFPVLLSNLATNFAQSEPLIVTTSFGLRIGLIGLTAPYVLAYPQAGWELSDPFVVLDELLPKLDCDFTILLSHLGKNVDEQIAKDYDEIDLIIGAHTHHLFEHGAQVNQTLLAAAGRYGEYVGQIDLTFNENNQLVDAQIEAIATNTLPQRKSDLVETNGWELRGHKLLEGTVVADLPKALPNVLPDFKGSHYLAKIFADYGNTKLCLMNSGLLVTDELPNHLTLDDLHEFLPHSIRLVRFTFTGEELRQVLLEIMDVSDFLATQKIQGMGFRGKTFGSLIFHGIEPREGDFYIKNSENQSLEKISDEESYQIVLPDQYLFAWYFPLLKKLGKSEILFPYFLREIVAEHFKNK
MGSDKIHHHHHHMNKPERPSHLAAARREPTHYLTADERAAKGRALRDTVPRGSQSGWQAPEDRRDPIELLNESNAGRILDLVPIRYGRMAASPFAFYRGSASLMAADLATTPSSGIRVQACGDAHLMNFGGFATPERNIIFDINDLDETLPAPFEWDLKRLAASLAIAAEHLALPKSDAARVVTDVVREYRERMFNYGWMRALDVWYDRIDLQKYEDRSGDPEIVAAARKRLAQRIEGERRKTVPDYLYPKLVSEEGAKPRIKDEPPLIFHPTEELAPGMGSDYAQAIASYRSSLAEHVRVLFDRFHFFDMAIKVVGVGSVGTMCGVGLFLAADNDPLFLQVKEARASVLEPYAGKSLHANHGERVIAGQRLMQAASDVFLGWTRGENGRDFYLRQLRDMKLSAVIEDWDTGMLRQYGRMCAHALARAHARSGDAAMMAGYMGSGQAFDDAICEFATEYCSQNRSDFRTFVAAIREGRIEARLEAN
MGSDKIHHHHHHMNKPKVPPTITEQPDEQTFAYLLAHIQQTRQQVFAQVNTALIELYWSVGKTISEKVVSAGWGKGVVKQLAAYLASQAPDIKGFSDKNLWRMKQFYETYQHDIKLASLVRVLPWTHNTIIFSRCKSNREREHYLMLVQRERLSSRELERHINAAHFERSLIEQPKLSAVLRQSHPIANTIFKDNYTLEFLGLPSSHSESDLQKAIINNLKTFILELGKDFIFIDEEYRLQVGNQDFYIDLLFFHRGLAALVAFELKIGKFSPQHLGQLDFYLEALDRDVKKPHENPSIGVLLCRDKDDEVVEYALSRNLSPTLVAQYQCQMPDKQLLQAKLHQLLQDLPAQDELASQHMTEQMPRQGEYNE
MGSDKIHHHHHHMNKTITIDPVTRIEGHARVFIDLDDGGALKAAGLVVNELRGFEKILTGMDADRMPLVTARICGVCPTAHHLAATNALDNAAGVEPPTAAKLLRELMYMGHLIHSHCLSLFVLQGPDLVLGLDADPAIRNVVGVVQAVPDIARKALQCRSIGQKINELVGGRGTHPVTSVAGGIAFVLDADRERQLNAWIQEAHGLVLELAPVVKQLLMKMLDANPAMLEQWVIPAWSVGTVKGDGTIALVNGEIRAIDESGARKAQFPTAGYDTHLSEAAVDFSYMKQVSFVEGETRHDYRVGPLARLNISDRYGTPLADREREEFIRTVGRPCHANALQPWARLIELLYCTERAQEIMASPEIHGETRVPVKFSGGRGVGHVEAPRGTLIHDYEIDENGIVRAANLIVATQQNYALINTMIAQAATSHVINRPDDQALLNAVEFGIRCYDPCLSCATHALGAMPLEIVVNRADRPHLIRRNC
MGSDKIHHHHHHMNKYLNNINASYCCGCSACVHKCPKQCLRMSQDKDGFFFPIVNNREACIDCSLCAKVCPMENMVESDYPHTFYGAYNTNKTDIVNSSSGGIYPSLAKWIISQGGIVFGASLDDEHKLYHIGVSTESDIQKTIGSKYFQSEIRDTYVECKKELDKGRLVLYTGTPCQVHGLKRYLGKDYDNLYTADVICHGVPSSKMFDAYIDFLEKKHNGKLVDINFRDKKRNGWSITLRYTIEYSNDKRKDYYLINKLSEYFMAFLGGYIERESCYSCPFSSMRRPGDITMGDFWGYQFKRPDLKHDEGLSLIIVNSEHGKRIVDVLHRNGVQFNAVDEECVKASENKNLYKPTLRPEVRSVVYDELQNFGFEYIAKKYFRRTQTLRNKAKNYMPVALVNIIKKLK
MGSDKIHHHHHHMNLLKIIDDLQLEKIDQEEFLKPALRRGLFKKASDFSLKAALTSLPFALFAMPRIVQASTQANTQSVTDTLNYALTLEYLEEAFYVQGLAKSGLIDSADMTIFNQIKKHESAHVVFLKNVLGSAANPSPAFDFGTAFDSYANFLATAQALEDTGVRAYKGQAGNLITNKVALTAALQIHSVEARHASEVRRLRMLNGWIGVGEAGATYGAGEDANFPAESNLTQGGVDLSILASADVTMTNIAEAFDEPLDKNTVFGIAQGFIVS
MGSDKIHHHHHHMNLPLNVAPVAAAPASPIVELRQYTLNPGQRETLIALFDREFIESQEATGMTIIGQFRDLDRPDMFVWLRGFDGMDTRKEALAAFYDGPVWAAHRDAANATMTDSDDVLLLKPAWPSAGFDLSGLQRPVSAEQENSSNENHLGGIVVIRIHHLRSGAETEFASRFAAEAALIMKAHGVRLLAAFASEHAQNSFPRLPVRASENVFLSIARFDSAEAHASQEAALAAAPAWQSFLRAVQLDLTKPTETLRLSPTSRSLVGARFRMPR
